Data as given in the supplement of paper PMC9170038.

Columns and labels:
[1] = system: MS2 coat protein; assay: apparent KD of MS2 coat protein, switch ON state; designed switch direction (-1 OFF switch, 1 ON switch): 1; higher = weaker reporter binding; settings: FMN input: 0 or 200 uM; Eterna round: R93 (includes R88 designs)
Method in brief: (§1)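 Binding of SNAP-549-labelled MS2 coat protein was measured on designed RNA switches transcribed on-chip from Illumina sequencing clusters. The protein rose in twofold steps from 0.7 or 1.5 nM to 3 µM, with 0.8–1.5 h per step early on and 10–20 min per step later, in 100 mM Tris-HCl pH 7.5, 80 mM KCl, 4 mM MgCl2, without or with constant ligand. Each design's apparent KD is the median of fits to its normalised cluster binding curves.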

[2] = system: MS2 coat protein; assay: apparent KD of MS2 coat protein, switch OFF state (with FMN for OFF switches, without FMN for ON switches); designed switch direction (-1 OFF switch, 1 ON switch): 1; higher = weaker reporter binding; settings: FMN input: 0 or 200 uM; Eterna round: R93 (includes R88 designs)
Method in brief: as §1

Sequence: UCCUUACAUGAGGAUCACCCAUGUCGCAGGAAUCAAGGAUAUGGGACCGCAAGACGGAAACCAGAAGGUGAAAUAU [Gedizala]
- apparent KD of MS2 coat protein [1]: 181 nM
- apparent KD of MS2 coat protein [2]: 287 nM

Sequence: AAGAAAGUUUACGAGGAUAUGUUCCGCAGUACAUGAGGAUCACCCAUGUGAACACGAAGGGCGACGCAGAAGGCGUGAGCAAUGA [Orononed]
- apparent KD of MS2 coat protein [1]: 30.9 nM
- apparent KD of MS2 coat protein [2]: 89.2 nM

Sequence: AAAAGACAUGAGGAUCACCCAUGUCAAAACAUAGGAGGAUAUGUCGUGAAAAAAGACUUGGCAGAAGGCCUUUGUC [SS1 - 48]
- apparent KD of MS2 coat protein [1]: 17.3 nM
- apparent KD of MS2 coat protein [2]: 19.3 nM

Sequence: AACAAACAUGAGGAUCACCCAUGUCAAACAAACCAAGGAUAUGGGAAGCGAGACUCGCUACCAGAAGGUGGAAAUU [Edtigebe]
- apparent KD of MS2 coat protein [1]: 43.8 nM
- apparent KD of MS2 coat protein [2]: 176 nM

Sequence: AGGAGACAUGAGGAUCACCCAUGUGAGAAGAGGCGAGGAUAUCGAAAGAAAGAAGAGAAACGAGAAGGCGCGAGGA [salish99-SS1-019]
- apparent KD of MS2 coat protein [1]: 29.8 nM
- apparent KD of MS2 coat protein [2]: 58.5 nM

Sequence: AUAAAACAUGAGGAUCACCCAUGUAGAAAUAUGGGAGGAUAUACAAAGACGAAAGUCGAGGUAGAAGGCCUAAAAG [Mat - Same State 1 - Meechl mod - D121]
- apparent KD of MS2 coat protein [1]: 21.3 nM
- apparent KD of MS2 coat protein [2]: 97.9 nM

Sequence: AAAAAACAAAGAGAGGAUAUCCAAAAAAAAACAUGAGGAUCACCCAUGUAAAGAAAUUUAAAAUGGGAGAAGGCUCUUUGAAAAA [Same State 2.6b ( Helter Skelter 1)]
- apparent KD of MS2 coat protein [1]: 33.4 nM
- apparent KD of MS2 coat protein [2]: 30.9 nM

Sequence: AAUACACAUGGUCAGGAUAUCGCAGCUAGGACAUGAGGAUCACCCAUGUCGUACGUAACCGUAAAUGAGAAGGGACAGGGUGACC [JR_SS002_Sub408]
- apparent KD of MS2 coat protein [1]: 145 nM
- apparent KD of MS2 coat protein [2]: 54.1 nM

Sequence: GUGAAGGAGAGAGAGGAUAUCCAAAGGAAAACAUGAGGAUCACCCAUGUAGAAGGUAGGAAAUUGGGAGAAGGCUCAAGAGAGAG [salish99-ss2-114]
- apparent KD of MS2 coat protein [1]: 27 nM
- apparent KD of MS2 coat protein [2]: 39.5 nM

Sequence: GAAGACAUAGUUCAGGAUAUGGGAAUAGUCACAUGAGGAUCACCCAUGUGCAUUUAUAUGCGCGCUCAGAAGGGAGGUAGAUAUA [SameState2 Malc#19]
- apparent KD of MS2 coat protein [1]: 21 nM
- apparent KD of MS2 coat protein [2]: 33.5 nM

Sequence: UAUAGACAUGAGGAUCACCCAUGUAGAAUUAUGGGAGGAUAUACAAAGACGAGAGUCAGAGUAGAAGGCCUAGGAG [salish99-ss1-153]
- apparent KD of MS2 coat protein [1]: 31.8 nM
- apparent KD of MS2 coat protein [2]: 63.4 nM

Sequence: GACUGACAUGAGGAUCACCCAUGUAUUCAAACAUGAGGAUAUAUGACACGUCAUCGACGGAUAGAAGGCAUAGAUG [JR_SS001_Sub1210]
- apparent KD of MS2 coat protein [1]: 163 nM
- apparent KD of MS2 coat protein [2]: 205 nM

Sequence: AAAAAACAAAGAGAGGAUAUCCUGAAAAAAACAUGAGGAUCACCCAUGUAAAGAAAUUUAAAAUGGGAGAAGGCUCUUUGAAAAA [Same State 2.6c ( Helter Skelter 1)]
- apparent KD of MS2 coat protein [1]: 24.6 nM
- apparent KD of MS2 coat protein [2]: 22.3 nM

Sequence: AAAAAACAUGAGGAUCACCCAUGUAGAAACAUGGGAGGAUAUACGAAGACGAAAGUCAAAGUAGAAGGCCUAAGAG [Garnet 89]
- apparent KD of MS2 coat protein [1]: 183 nM
- apparent KD of MS2 coat protein [2]: 592 nM

Sequence: AAGAAACAUGAGGAUCACCCAUGUAGAAAUAUGGGAGGAUAUACAAAGACGAAAGUCAAAGUAGAAGGCCUAAGAA [Mat - Same State 1 - Meechl mod - D129]
- apparent KD of MS2 coat protein [1]: 16.6 nM
- apparent KD of MS2 coat protein [2]: 63.2 nM

Sequence: AGAAGACAUGAGGAUCACCCAUGUGGGAAUAUGGGAGGAUAUACAAAGACGAGAGUCAGAGUAGAAGGCCUAGGAG [salish99-SS1-093]
- apparent KD of MS2 coat protein [1]: 63.3 nM
- apparent KD of MS2 coat protein [2]: 150 nM

Sequence: AAAAAACAUGAGGAUCACCCAUGUAGAAACAUGGGAGGAUAUACAAAGACGAAAGUCAAAGUAGAAGGCCUAAAGA [Mat - Same State 1 - Mod - D162]
- apparent KD of MS2 coat protein [1]: 162 nM
- apparent KD of MS2 coat protein [2]: 182 nM

Sequence: AAAAGAGCGACACAGGAUAUGUUGACUCUAACAUGAGGAUCACCCAUGUGCAUUUAGGGUCGUGCGCAGAAGGGUGUAGCUCGGA [Laesbibiti]
- apparent KD of MS2 coat protein [1]: 11.7 nM
- apparent KD of MS2 coat protein [2]: 24.7 nM
